Where a chain is given by its changes, count along the chain named.
Assays:
[1] = biological target: T1, Mouse mPDL1-HSA fusion protein (mouse); assay: ELISA on coated mPDL1-HSA, anti-his detection
T1 construct: The entry is the whole fusion of mouse PD-L1 with HSA; also called mouse PDL1
Method: Mouse mPDL1-HSA fusion protein (SEQ ID NO: 52) was coated onto a plate overnight in an amount of 200 ng/ well at 4° C., and blocked with 5% skimmed milk powder for 1 hr at room temperature. The purified histidine-tagged anti-PDL1single-domain antibody was diluted to 1 μg/mL, then added to the plate in an amount of 100 μL/well, and incubated at 37° C. for 1 hr. After washing three times with PBST, 100 μl/well of 1:5000 diluted mouse anti his tag antibody (R&D Systems Inc) was added, and the plate was incubated at room temperature for 1 hr. After washing with PBST, 100 μl/well of 1:10000 diluted HRP-Goat anti mouse IgG antibody (Thermo Scientific) was added, and the plate was incubated at room temperature for 1 hr. After washing with PBST, TMB was added for color development, and the OD value was detected at 450 nm.

[2] = biological target: T2, PDL1-HSA fusion protein composed of PDL1 extracellular domain and human serum albumin (human); assay: ELISA, VHH at 1 µg/mL on coated PDL1-HSA, anti-his detection
T2 construct: The entry is the whole fusion: PD-L1 extracellular domain, linker, human serum albumin; also called Human PDL1-HSA; hPDL1-HSA
Method: (§1) Human PDL1-HSA or HSA (purchased from Sigma) was coated onto a plate in an amount of 200 ng/well at 4° C., and blocked with 5% skimmed milk powder for 1 hr at room temperature. The purified anti-PDL1single-domain antibody with a histidine-tag was diluted to 1 μg/mL, added to the plate in an amount of 100 μL/well, and incubated at 37° C. for 1 hr. After washing three times with PBST, 100 μl/well of 1:5000 diluted mouse anti-his tag antibody (R&D Systems Inc.) was added, and the plate was incubated at room temperature for 1 hr. After washing with PBST, 100 μwell of 1:10000 diluted HRP-Goat anti mouse IgG antibody (Thermo Scientific) was added, and the plate was incubated at room temperature for 1 hr. After washing with PBST, a TMB developing solution (Beijing ComWin Biotech Co., Ltd) was added for color development, and the OD value was read at 450 nm.

[3] = biological target: T2, PDL1-HSA fusion protein composed of …; assay: competitive ELISA on coated PDL1-HSA; competitor PD1-Fc (4.8 µg/mL, mixed in equal volume)
Method: PDL1-HSA was coated onto a plate overnight in an amount of 200 ng/well at 4° C., and blocked with 5% skimmed milk powder for 1 hr at room temperature. […] 100 μl was added per well and incubated at 37° C. for 1 hr. After washing three times with PBST, 100 μl of 1:20000 diluted HRP-Goat anti-Human IgG Fc(Novex) was added to each well, and incubated at room temperature for 1 hr. After washing three times with PBS, TMB substrate was added, and the plated was incubated at 37° C. After incubation for 5 min to develop color, 1 M sulfuric acid was added to stop the reaction. The OD value was read at 450 nm, and the half maximal inhibitory concentration (IC50 value) was calculated.

[4] = biological target: T3, HSA (purchased from Sigma) (human, UniProt P02768 25-609); assay: ELISA, VHH at 1 µg/mL on coated HSA, anti-his detection
T3 construct: Control coating for the fusion partner of PDL1-HSA; also called human serum albumin
Method: as §1

T2 sequence (chain, as listed by the source limits assumed): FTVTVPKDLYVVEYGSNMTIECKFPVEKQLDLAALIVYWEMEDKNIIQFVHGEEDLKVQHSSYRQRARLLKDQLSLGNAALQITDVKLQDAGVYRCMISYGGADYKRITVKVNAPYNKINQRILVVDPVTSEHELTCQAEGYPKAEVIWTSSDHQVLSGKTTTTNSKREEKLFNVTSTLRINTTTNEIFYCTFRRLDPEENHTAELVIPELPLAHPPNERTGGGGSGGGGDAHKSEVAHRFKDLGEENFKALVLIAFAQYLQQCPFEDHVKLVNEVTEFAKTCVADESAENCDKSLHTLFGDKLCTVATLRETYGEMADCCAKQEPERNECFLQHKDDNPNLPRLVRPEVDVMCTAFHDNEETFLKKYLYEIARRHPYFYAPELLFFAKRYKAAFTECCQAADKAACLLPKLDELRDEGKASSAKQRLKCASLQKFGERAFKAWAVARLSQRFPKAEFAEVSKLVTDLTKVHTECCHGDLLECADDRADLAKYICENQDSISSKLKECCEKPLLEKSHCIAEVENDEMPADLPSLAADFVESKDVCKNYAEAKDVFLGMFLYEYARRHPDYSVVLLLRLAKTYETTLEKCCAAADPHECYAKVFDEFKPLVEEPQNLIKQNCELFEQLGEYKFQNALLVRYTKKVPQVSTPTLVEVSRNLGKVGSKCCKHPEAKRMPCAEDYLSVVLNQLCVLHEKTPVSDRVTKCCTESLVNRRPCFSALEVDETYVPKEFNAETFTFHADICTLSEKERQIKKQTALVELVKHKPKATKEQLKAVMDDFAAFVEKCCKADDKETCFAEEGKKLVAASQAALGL
T1 sequence (chain, as listed by the source limits assumed): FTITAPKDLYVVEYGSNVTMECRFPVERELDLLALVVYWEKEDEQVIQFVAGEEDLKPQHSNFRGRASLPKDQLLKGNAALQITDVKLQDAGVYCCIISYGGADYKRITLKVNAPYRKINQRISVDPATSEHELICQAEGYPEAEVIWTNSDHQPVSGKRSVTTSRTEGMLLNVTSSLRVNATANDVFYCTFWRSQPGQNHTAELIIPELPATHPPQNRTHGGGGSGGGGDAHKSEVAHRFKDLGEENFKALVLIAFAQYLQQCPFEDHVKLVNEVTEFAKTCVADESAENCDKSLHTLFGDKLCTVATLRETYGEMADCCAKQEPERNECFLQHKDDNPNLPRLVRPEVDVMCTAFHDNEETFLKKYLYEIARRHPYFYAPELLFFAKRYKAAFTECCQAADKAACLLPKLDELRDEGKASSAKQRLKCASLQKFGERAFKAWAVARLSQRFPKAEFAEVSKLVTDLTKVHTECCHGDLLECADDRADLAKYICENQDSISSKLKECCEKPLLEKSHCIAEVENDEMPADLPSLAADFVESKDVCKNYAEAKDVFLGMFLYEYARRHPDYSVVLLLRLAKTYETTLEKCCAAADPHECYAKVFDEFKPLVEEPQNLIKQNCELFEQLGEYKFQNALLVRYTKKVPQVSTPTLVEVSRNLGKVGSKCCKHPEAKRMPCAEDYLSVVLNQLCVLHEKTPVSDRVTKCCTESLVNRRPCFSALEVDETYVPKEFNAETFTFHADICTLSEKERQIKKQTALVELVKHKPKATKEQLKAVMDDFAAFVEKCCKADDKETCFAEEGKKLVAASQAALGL
T3 sequence (P02768 25-609 limits assumed): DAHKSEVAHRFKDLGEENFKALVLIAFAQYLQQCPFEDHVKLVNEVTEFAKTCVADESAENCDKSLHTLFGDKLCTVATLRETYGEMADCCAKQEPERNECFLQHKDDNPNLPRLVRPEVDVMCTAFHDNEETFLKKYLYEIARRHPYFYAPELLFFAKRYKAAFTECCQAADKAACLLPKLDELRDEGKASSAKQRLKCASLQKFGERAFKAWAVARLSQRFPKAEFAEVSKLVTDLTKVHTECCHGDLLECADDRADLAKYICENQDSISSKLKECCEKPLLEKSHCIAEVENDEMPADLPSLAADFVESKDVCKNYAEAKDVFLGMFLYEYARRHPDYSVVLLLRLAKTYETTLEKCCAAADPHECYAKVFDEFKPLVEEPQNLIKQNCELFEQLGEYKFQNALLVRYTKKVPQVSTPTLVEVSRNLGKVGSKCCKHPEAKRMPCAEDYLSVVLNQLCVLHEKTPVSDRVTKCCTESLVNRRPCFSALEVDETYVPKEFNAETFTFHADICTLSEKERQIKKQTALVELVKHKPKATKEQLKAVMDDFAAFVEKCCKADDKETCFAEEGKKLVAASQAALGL

B1: anti-PDL1 single-domain antibody 1D7, histidine-tagged (VHH)
VHH: QVQLVESGGGLVQPGGSLRLSCAASGRAFLTYAMGWFRQAPGKEREFVAAISWSGSSTYYADSVKGRFTISRDNAKNMVYLQMNSLKPEDTAVYYCAAKVSGATRDHLMTTYDYWGQGTQVTVSS
notes: not shown: C-terminal histidine tag
With B1 the binding result [1] was “no binding (tested: 1 µg/mL)”, the OD450 nm [2] was 2.15 OD450 nm and the IC50 [3] was 0.0551 mg/L. For the same binder, the OD450 nm [4] was 0.076 OD450 nm.

B2: anti-PDL1 single-domain antibody 1D1, histidine-tagged (VHH)
VHH: QLQLVESGGGLVQAGGSLRLSCAASGGTFITYAMGWFRQAPGKDREFVAGISWSGSSTYYTDSVKGRFTISRDNAKNTVYLQMNSLKPGDTAVYYCAAKISGATREHLMTSYDYWGQGTQVTVSS
notes: as for B1
For B2, the binding result [1] was “no binding (tested: 1 µg/mL)”, the OD450 nm [2] was 2.01 OD450 nm and the IC50 [3] was 0.0452 mg/L. It also gave an OD450 nm [4] of 0.074 OD450 nm.

B3: anti-PDL1 single-domain antibody 5A8, histidine-tagged (VHH)
VHH: B2 VHH with A14P, K76Q, L86R, M109R, W115G
notes: as for B1
With B3 the binding result [1] was “no binding (tested: 1 µg/mL)”, the OD450 nm [2] was 2.02 OD450 nm and the IC50 [3] was 0.0436 mg/L. It also gave an OD450 nm [4] of 0.064 OD450 nm.

B4: anti-PDL1 single-domain antibody 1A7, histidine-tagged (VHH)
VHH: QLQLVESGGDLVQPGGSLRLSCAASGSIFSANLIDWYRQPPGKQRELVAVISSRGITSYADSVKGRFTISRDNAKNTVYLQMNSLKPEDTAVYYCHLFHTDGLGYWGQGTQVTVSS
notes: as for B1
B4 was tested, and the binding result [1] was “no binding (tested: 1 µg/mL)”, the OD450 nm [2] was 2.05 OD450 nm and the IC50 [3] was 0.0505 mg/L. It also gave an OD450 nm [4] of 0.082 OD450 nm.

B5: anti-PDL1 single-domain antibody 1G10, histidine-tagged (VHH)
VHH: QVQLVESGGGLVQAGGSLRLSCAASGRPFITYAMGWFRQAPGKEREFVAAINWSGSITAYADSVKGRFTISRDNAKNAAYLQMNSLKPDDTAVYYCASKRTAVAPRALNDYDFWGQGTQVTVSS
notes: as for B1
With B5 the binding result [1] was “no binding (tested: 1 µg/mL)”, the OD450 nm [2] was 2.08 OD450 nm and the IC50 [3] was 0.0628 mg/L. It also gave an OD450 nm [4] of 0.073 OD450 nm.

B6: anti-PDL1 single-domain antibody 6F1, histidine-tagged (VHH)
VHH: QLQLVESGGGLVQPGGSLRLSCAASGRTFSTHSMHWFRQAPEKERVFVAAINWNGDSTYYADSVKGRFTISRDNSKNTVDLQMNNLKPEDTAVYVCAARPGAPSTIVAMLDYWGQGTQVTVSS
notes: as for B1
B6 was tested, and the binding result [1] was “no binding (tested: 1 µg/mL)”, the OD450 nm [2] was 2.05 OD450 nm and the IC50 [3] was 0.0527 mg/L. The OD450 nm [4] was 0.081 OD450 nm.

Source: patent publication US20220372150A1 (ZHEJIANG DOER BIOLOGICS, published 2022)
